Columns and labels:
[1] = target: gH-Lg CTSCR / HSV-1 gL (herpes simplex virus 1 (strain KOS)) (UniProt P10185); assay: split reporter (BiFC, NanoBiT); live CHO effector cells transfected with the two BiT-tagged partners and the remaining HSV-1 proteins required for fusion; Endurazine substrate; luminescence every 2 min at 37°C for 1 h before and 7.5 or 8 h after adding target CHO cells with or without nectin-1; quantified as area under the curve
[2] = target: gH-Lg TMDEBV / HSV-1 gL (herpes simplex virus 1 (strain KOS) | Epstein-Barr virus) (UniProt P10185); assay: as above
[3] = target: gH-Lg TMDEBV-CTSCR / HSV-1 gL (herpes simplex virus 1 (strain KOS) | Epstein-Barr virus) (UniProt P10185); assay: as above
[4] = target: HSV-1 gH-Lg expressed without gL (herpes simplex virus 1 (strain KOS)) (UniProt P06477); assay: split reporter (BiFC, NanoBiT); as the NanoBiT assay in live CHO cells, but in the absence of HSV-1 gL (gH stays in the ER)
Chain of UniProt P06477 (P06477 19-838): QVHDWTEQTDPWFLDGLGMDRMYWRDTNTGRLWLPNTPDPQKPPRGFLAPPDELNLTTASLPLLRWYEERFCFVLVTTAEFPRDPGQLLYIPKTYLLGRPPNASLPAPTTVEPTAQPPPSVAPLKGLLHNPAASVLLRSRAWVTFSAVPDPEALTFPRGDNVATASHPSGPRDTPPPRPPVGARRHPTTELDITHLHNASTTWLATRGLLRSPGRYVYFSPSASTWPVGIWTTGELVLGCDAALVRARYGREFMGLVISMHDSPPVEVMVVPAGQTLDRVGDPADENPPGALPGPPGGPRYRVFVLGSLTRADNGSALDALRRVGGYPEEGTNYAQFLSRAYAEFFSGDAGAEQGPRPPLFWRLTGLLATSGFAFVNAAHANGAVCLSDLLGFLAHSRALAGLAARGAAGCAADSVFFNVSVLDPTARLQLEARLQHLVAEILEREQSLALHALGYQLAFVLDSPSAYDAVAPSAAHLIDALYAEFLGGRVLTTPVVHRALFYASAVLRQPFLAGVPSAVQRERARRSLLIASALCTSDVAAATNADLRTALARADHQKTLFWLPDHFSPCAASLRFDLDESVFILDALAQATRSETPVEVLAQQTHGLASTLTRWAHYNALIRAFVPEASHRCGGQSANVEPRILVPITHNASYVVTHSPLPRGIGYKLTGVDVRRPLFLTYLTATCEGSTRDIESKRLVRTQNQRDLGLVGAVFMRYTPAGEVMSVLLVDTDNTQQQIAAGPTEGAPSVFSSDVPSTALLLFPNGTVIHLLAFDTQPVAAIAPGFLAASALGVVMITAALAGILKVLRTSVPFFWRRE

| Substance | percent of the interaction of WT HSV-1 gH-Lg/gL [1] [%] | percent of the interaction of WT HSV-1 gH-Lg/gL [2] [%] | percent of the interaction of WT HSV-1 gH-Lg/gL [3] [%] | fold reduction in the absence of gL (against gH-Lg/gL) [4] [fold] | percent of the interaction of WT HSV-1 gH-Lg [3] [%] |
| --- | --- | --- | --- | --- | --- |
| HSV-1 gB-Sm (from UniProt P06437 31-904) (natural protein) | 60 | 60 | 54 | – | – |
| HSV-1 gD-Sm (from UniProt Q69091 26-394) (natural protein) | – | – | – | 6 | 45 |
